The target in the data set is FMRP (fragile X mental retardation protein) (human, UniProt Q06787 1-632). Description: EMSA; FMRP 0.35-1.4 ug; 0.50 pmol RNA; FMRP EMSA: 30 min on ice, 6% nondenaturing PAGE; buffer, salt and pH not given (cited ref 18). Strand annealing assays (FMRP, I304N, dKHT, FXR1P) read RNA:RNA a.

B1: hsa-miR-196a-1 mature miRNA (ssRNA)
RNA: UAGGUAGUUUCAUGUUGUUGG
In the case of B1, the binding result is reported as “binds”.
